Earlier results on one substance are cited in article PMC11349558.

The target in the data set is histone H4 (UniProt P62805).

In general, Kd refers to the equilibrium constant for the complex coming apart. Turning to “fibrinogen D-domain (from UniProt P02671)”, the dissociation constant Kd was 2 nM.
